Measurements published in PMC12592418, “Therapeutic potential of red bean (phaseolus vulgaris) peptides: anticancer, antihypertension, and antioxidant activities” (Scientific Reports, 2025).
No end group written: not given here.

T1: angiotensin-converting enzyme (ACE) (UniProt P12822)
T1 sequence (P12822 whole entry, species assumed, looked up): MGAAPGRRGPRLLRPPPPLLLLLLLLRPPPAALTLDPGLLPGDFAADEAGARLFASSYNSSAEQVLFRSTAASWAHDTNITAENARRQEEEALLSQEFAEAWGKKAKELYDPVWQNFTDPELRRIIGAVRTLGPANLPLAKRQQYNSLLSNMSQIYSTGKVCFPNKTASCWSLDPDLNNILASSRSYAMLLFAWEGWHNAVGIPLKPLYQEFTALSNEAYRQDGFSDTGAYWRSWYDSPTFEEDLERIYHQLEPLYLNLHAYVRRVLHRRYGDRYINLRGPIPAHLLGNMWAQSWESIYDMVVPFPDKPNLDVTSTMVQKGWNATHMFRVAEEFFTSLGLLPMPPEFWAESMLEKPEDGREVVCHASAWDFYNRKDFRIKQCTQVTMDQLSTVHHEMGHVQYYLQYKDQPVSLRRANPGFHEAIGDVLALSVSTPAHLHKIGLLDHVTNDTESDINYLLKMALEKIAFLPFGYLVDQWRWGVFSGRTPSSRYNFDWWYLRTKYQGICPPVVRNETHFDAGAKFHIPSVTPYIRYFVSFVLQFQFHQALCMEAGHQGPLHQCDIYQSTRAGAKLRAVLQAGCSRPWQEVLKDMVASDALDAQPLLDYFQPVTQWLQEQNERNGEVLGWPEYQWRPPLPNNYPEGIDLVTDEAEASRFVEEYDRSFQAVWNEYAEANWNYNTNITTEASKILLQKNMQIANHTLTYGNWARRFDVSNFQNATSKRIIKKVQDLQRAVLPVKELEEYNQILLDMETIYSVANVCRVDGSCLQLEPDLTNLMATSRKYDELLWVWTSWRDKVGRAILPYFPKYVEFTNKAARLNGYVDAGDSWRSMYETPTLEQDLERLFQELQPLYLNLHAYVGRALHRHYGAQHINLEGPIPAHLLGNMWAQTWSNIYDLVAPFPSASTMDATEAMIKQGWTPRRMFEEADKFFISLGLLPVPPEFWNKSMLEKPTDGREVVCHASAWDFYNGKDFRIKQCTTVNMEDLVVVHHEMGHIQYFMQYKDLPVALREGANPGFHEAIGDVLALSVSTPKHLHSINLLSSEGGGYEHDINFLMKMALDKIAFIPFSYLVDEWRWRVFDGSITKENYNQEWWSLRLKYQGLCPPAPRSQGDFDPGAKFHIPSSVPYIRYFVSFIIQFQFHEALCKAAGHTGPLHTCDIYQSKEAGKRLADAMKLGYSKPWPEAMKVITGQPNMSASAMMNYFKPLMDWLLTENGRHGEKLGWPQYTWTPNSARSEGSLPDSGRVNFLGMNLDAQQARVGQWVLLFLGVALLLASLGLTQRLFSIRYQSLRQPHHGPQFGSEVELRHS

B1: RB-4 (peptide)
peptide: GSEIRSTSDDVL
B2: RB-8 (peptide)
peptide: LIIPATSTKFL
B3: RB-6 (peptide)
peptide: RRLRILL
B4: RB-5 (peptide)
peptide: APANGSAF
B5: RB-7 (peptide)
peptide: RGSKQRQKRQW
B6: RB-3 (peptide)
peptide: SPTPPKNVPF
B7: RB-2 (peptide)
peptide: DHPTGGL
B8: RB-1 (peptide)
peptide: NLRKLKRL

system: CaCO2 cells; assay: MTT cell viability assay, CaCO2; format: cell-based, human; settings: synthetic peptide 100 µg/ml, 24 h, mean ± SD, n = 3
Protocol: CaCO2, HepG2, MCF-7, NCI-H460, SiHa, SW620, and Vero cells were obtained from the American Type Culture Collection (ATCC, Manassas, VA, USA). Cells were cultured in Dulbecco’s Modified Eagle’s Medium (DMEM; PAA, Pasching, Austria), supplemented with 10% (v/v) fetal bovine serum (Gibco, South America), 10 mM HEPES (HyClone, Utah, USA), 2 mM L-glutamine, and 100 U/mL penicillin and 100 µg/mL streptomycin. Cultures were maintained at 37 °C in a humidified atmosphere containing 5% CO₂.
The anticancer activity of protein hydrolysates and synthetic peptides against CaCO2, HepG2, MCF-7, NCI-H460, SiHa, SW620, and Vero cells were evaluated using the MTT assay. Cells were seeded into 96-well plates (Nunc™, Roskilde, Denmark) at a density of 2 × 10⁴ cells per well, and allowed to adhere. Following seeding, cells were treated with 100 µg/mL of protein hydrolysates or synthetic peptides for 24 h, while untreated cells served as controls. After 24 h, 20 µL of MTT solution (5 mg/mL; Sigma, St. Louis, MO, USA) was added to each well and incubated for an additional 3 h. The supernatant was then removed, and 100 µL of DMSO was added to each well to dissolve the formazan crystals. Optical density (OD) was measured at 540 nm using a microplate reader (Rayto RT-2100 C, China). Cell viability was calculated using the equation: (OD of treated cells/OD of untreated cells) × 100.
The IC50 values were calculated from a fitted semi-log response curve, plotting cell viability percentages against concentration. These values were determined using the AAT-Bioquest IC50 calculator (https://www.aatbio.com/tools/ic50-calculator).

How did the “Inhibitory percentage, CaCO2” value turn out when LIIPATSTKFL [RB-8] was run?
Its value is 20.79±1.23%.

molecular target: T1, angiotensin-converting enzyme (ACE); assay: not given; settings: not given

How did the Antihypertension (%): percent inhibition of ACE activity (hydrolysis of hippuryl-L-histidyl-L-leucine) at 100 µg/ml peptide turn out when B1 was run?
The Antihypertension (%): percent inhibition of ACE activity (hydrolysis of hippuryl-L-histidyl-L-leucine) at 100 µg/ml peptide was 13.3%.

How did the Antihypertension (%): percent inhibition of ACE activity (hydrolysis of hippuryl-L-histidyl-L-leucine) at 100 µg/ml peptide turn out when B2 was run?
The Antihypertension (%): percent inhibition of ACE activity (hydrolysis of hippuryl-L-histidyl-L-leucine) at 100 µg/ml peptide was 16.7%.

Which Antihypertension (%): percent inhibition of ACE activity (hydrolysis of hippuryl-L-histidyl-L-leucine) at 100 µg/ml peptide does the source give for B3 here?
The Antihypertension (%): percent inhibition of ACE activity (hydrolysis of hippuryl-L-histidyl-L-leucine) at 100 µg/ml peptide was 46.7%.

With B4 as the molecule, how does the Antihypertension (%): percent inhibition of ACE activity (hydrolysis of hippuryl-L-histidyl-L-leucine) at 100 µg/ml peptide read?
The Antihypertension (%): percent inhibition of ACE activity (hydrolysis of hippuryl-L-histidyl-L-leucine) at 100 µg/ml peptide was 43.3%.

How did the Antihypertension (%): percent inhibition of ACE activity (hydrolysis of hippuryl-L-histidyl-L-leucine) at 100 µg/ml peptide turn out when B5 was run?
Its Antihypertension (%): percent inhibition of ACE activity (hydrolysis of hippuryl-L-histidyl-L-leucine) at 100 µg/ml peptide is 60%.

With B6 as the molecule, how does the Antihypertension (%): percent inhibition of ACE activity (hydrolysis of hippuryl-L-histidyl-L-leucine) at 100 µg/ml peptide read?
The Antihypertension (%): percent inhibition of ACE activity (hydrolysis of hippuryl-L-histidyl-L-leucine) at 100 µg/ml peptide was 20%.

For B7, which Antihypertension (%): percent inhibition of ACE activity (hydrolysis of hippuryl-L-histidyl-L-leucine) at 100 µg/ml peptide is on record?
Its Antihypertension (%): percent inhibition of ACE activity (hydrolysis of hippuryl-L-histidyl-L-leucine) at 100 µg/ml peptide is 0%.

Which Antihypertension (%): percent inhibition of ACE activity (hydrolysis of hippuryl-L-histidyl-L-leucine) at 100 µg/ml peptide does the source give for B8 here?
Its Antihypertension (%): percent inhibition of ACE activity (hydrolysis of hippuryl-L-histidyl-L-leucine) at 100 µg/ml peptide is 20%.
